“And” between values parts separate entries of the source, which are not always exact repeats. Equal values may be shown once.
How the values were obtained:
[1] = biological target: mScarlet-I-PCNA (human, UniProt P12004 1-261); assay: FRET or BRET; competition: 1 µM p15-mNeonGreen and 1 µM mScarlet-I-PCNA with varying inhibitor (0-100 µM p15^51-70, 0-20 µM unlabeled PCNA), 1 h at 37 °C, PBS with 1 mM DTT; sensitized emission; Ki by the Cheng-Prusoff equation; details: both partners purified
[2] = biological target: mScarlet-I-PCNA^C148S (human, UniProt P12004 1-261, C148S); assay: FRET or BRET; 1 µM p15-mNeonGreen (donor) with 0-3.09 µM mScarlet-I-PCNA (acceptor, protomer concentration) in PBS with 1 mM DTT, 37 °C for 1 h, 384 well plate; sensitized emission by the three-channel method, control mNeonGreen/mScarlet-I-PCNA subtracted; apparent for C148S; details: both partners purified
Sequence of mScarlet-I-PCNA^C148S (P12004 whole entry C148S): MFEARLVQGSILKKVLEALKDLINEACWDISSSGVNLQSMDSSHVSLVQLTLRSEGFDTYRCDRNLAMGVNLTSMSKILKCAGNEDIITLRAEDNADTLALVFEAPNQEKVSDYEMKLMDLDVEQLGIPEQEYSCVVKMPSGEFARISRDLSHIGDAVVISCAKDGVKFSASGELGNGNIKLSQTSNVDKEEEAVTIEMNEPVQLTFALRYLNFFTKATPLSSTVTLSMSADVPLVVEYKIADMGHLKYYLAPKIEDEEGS

Sequence of mScarlet-I-PCNA (P12004 whole entry): as the sequence (P12004 whole entry C148S) above, with S148C counted along it

NPVCVRPTPKWQKGIGEFFR [peptide p15^51–70]
IC50 [1]: 9.81 µM | Ki [1]: 2.94 µM and 2.99 µM

B1: p15-mNeonGreen (natural protein, UniProt Q15004 1-111, looked up)
chain: MVRTKADSVPGTYRKVVAARAPRKVLGSSTSATNSTSVSSRKAENKYAGGNPVCVRPTPKWQKGIGEFFRLSPKDSEKENQIPEEAGSSGLGKAKRKACPLQPDHTNDEKE
Kd [2]: 3.09 µM
